Test results taken from article PMC11229320, “Dynamics of the Herpes simplex virus DNA polymerase holoenzyme during DNA synthesis and proof-reading revealed by Cryo-EM”.
Numbering of substitutions follows the chain as printed.

Tests used:
[1] = target: T1, UL30 DNA polymerase catalytic subunit;UL42 processivity factor (Herpes simplex virus 1 (HHV-1);Herpes …, UniProt P04293;P10226 1-1235;1-488, |); test: cryo-EM; pre-translocation state, open fingers; 2.4 A; Cryo-EM complex buffer not given in material; protein purified in 20 mM HEPES pH 7.8, 400 mM NaCl, 1.5 mM MgCl2, 1 mM DTT, 5% glycerol; settings: protein: recombinant;recombinant; copies: 1;1; 5' overhang 26 nt on template (22 bp)
[2] = target: T1, UL30 DNA polymerase catalytic …; test: cryo-EM; halted elongation state, dATP in dNTP pocket; 1 mM dATP/dGTP/dTTP/ddCTP mix; Cryo-EM complex buffer not given in material; protein purified in 20 mM HEPES pH 7.8, 400 mM NaCl, 1.5 mM MgCl2, 1 mM DTT, 5% glycerol; settings: protein: recombinant;recombinant; copies: 1;1; 5' overhang 14 nt on template after extension (22 nt before)
[3] = target: T1, UL30 DNA polymerase catalytic …; test: cryo-EM; DNA editing (exonuclease) state; also 9ENQ (active site); Cryo-EM complex buffer not given in material; protein purified in 20 mM HEPES pH 7.8, 400 mM NaCl, 1.5 mM MgCl2, 1 mM DTT, 5% glycerol; settings: protein: recombinant;recombinant; copies: 1;1; 5' overhang 21 nt on template; 1 mismatch (A/G) at primer 3' end
[4] = target: T1, UL30 DNA polymerase catalytic …; test: cryo-EM; DNA editing (exonuclease) state; also 8OJB, 8OJC (active site classes), 8OJD (beta-hairpin loop); Cryo-EM complex buffer not given in material; protein purified in 20 mM HEPES pH 7.8, 400 mM NaCl, 1.5 mM MgCl2, 1 mM DTT, 5% glycerol; settings: protein: recombinant;recombinant; copies: 1;1; 5' overhang 21 nt on template; 2 mismatches (A/G) at primer 3' end

T1 sequence (P04293 whole entry, chain 1 of 2): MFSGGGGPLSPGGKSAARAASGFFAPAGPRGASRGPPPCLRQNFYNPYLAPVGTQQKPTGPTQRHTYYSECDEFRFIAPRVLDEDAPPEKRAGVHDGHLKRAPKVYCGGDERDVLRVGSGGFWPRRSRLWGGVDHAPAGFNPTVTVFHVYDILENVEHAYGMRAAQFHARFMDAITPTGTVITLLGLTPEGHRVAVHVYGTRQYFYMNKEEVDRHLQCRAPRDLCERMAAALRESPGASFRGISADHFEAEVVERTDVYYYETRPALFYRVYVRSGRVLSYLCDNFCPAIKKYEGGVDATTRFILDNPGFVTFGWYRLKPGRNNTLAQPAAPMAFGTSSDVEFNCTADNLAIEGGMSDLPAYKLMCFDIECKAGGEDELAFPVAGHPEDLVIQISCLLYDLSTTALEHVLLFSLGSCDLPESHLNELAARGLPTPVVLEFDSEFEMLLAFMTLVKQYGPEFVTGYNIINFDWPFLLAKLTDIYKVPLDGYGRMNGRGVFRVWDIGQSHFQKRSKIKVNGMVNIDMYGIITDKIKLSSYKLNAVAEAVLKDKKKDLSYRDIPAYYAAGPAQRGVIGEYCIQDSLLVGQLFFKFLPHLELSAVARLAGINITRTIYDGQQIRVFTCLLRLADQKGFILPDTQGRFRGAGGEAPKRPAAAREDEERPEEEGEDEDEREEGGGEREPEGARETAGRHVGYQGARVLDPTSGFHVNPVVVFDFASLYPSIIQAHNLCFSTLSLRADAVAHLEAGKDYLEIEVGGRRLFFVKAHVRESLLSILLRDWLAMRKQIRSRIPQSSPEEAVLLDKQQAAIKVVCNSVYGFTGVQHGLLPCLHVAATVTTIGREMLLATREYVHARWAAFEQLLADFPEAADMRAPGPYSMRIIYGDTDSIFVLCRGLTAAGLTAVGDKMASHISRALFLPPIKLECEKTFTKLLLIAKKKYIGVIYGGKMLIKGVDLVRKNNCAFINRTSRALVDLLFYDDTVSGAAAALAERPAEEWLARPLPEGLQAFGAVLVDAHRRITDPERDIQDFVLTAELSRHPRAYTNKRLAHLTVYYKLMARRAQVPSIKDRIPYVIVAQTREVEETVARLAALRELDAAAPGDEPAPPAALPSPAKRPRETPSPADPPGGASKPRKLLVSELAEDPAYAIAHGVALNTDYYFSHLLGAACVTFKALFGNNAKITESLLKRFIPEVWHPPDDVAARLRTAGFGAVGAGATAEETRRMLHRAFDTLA
T1 sequence (P10226 whole entry, chain 2 of 2): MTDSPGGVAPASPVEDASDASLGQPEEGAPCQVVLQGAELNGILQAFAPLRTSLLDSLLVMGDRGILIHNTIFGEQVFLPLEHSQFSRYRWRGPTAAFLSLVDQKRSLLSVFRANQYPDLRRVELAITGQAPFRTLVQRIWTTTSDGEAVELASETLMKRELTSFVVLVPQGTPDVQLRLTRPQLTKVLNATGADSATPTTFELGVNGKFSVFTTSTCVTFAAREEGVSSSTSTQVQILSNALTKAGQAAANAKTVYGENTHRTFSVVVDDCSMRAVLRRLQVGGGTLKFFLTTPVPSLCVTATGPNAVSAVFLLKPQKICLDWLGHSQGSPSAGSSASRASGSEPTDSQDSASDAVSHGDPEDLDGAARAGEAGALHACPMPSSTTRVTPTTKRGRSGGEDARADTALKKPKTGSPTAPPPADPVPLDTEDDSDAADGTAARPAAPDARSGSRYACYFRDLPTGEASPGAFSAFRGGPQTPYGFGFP

B1: pre-translocation primer-template (dsDNA)
DNA 1: CGAAAGTACGTTATTGCGACTGGCCGTCGCTCTACAACGTCGTGACTG
DNA 2: CAGTCACGACGTTGTAGAGCGA
- binding result [1]: binds

B2: halted elongation primer-template (ddC-terminated) (dsDNA)
DNA 1: ATTTGCTGACCTTTGTTCTAATTGAGTTGGTTGGACGGCTGCGAGGCGATCAAGGTGTCGTAGTGGC
DNA 2: GCCACTACGACACCTTGATCGCCTCGCAGCCGTCCAACCAACTCAATTAGAAC
modifications: 3'-terminal ddC on primer, added in situ: printed primer S5 extended with dATP, dGTP, dTTP, ddCTP to first template G
- binding result [2]: binds

B3: 1-bp mismatch exonuclease primer-template (dsDNA)
DNA 1: B2 DNA 1 with A20G, A21G, T22G
DNA 2: GCCACTACGACACCTTGATCGCCTCGCAGCCGTCCAACCAACTCAA
modifications: * before each of the last two A of primer (phosphorothioate?; not defined in material)
- binding result [3]: binds

B4: 2-bp mismatch exonuclease primer-template (dsDNA)
DNA 1: ATTTGCTGACCTTTGTTCTGGGGTGAGTTGGTTGGACGGCTGCGAGGCGATCAAGGTGTCGTAGTGGC
DNA 2: GCCACTACGACACCTTGATCGCCTCGCAGCCGTCCAACCAACTCAAA
modifications: * before each of the last two A of primer (phosphorothioate?; not defined in material)
- binding result [4]: binds
